Assay results published in the RNAGym collection of RNA variant scans (doi:10.1021/acssynbio.7b00057).

B1: Pistol ribozyme (parent)
chain: GGGUCGUUGUUCCAUAAUCGCGUGGAUAUGGCACGCAAGUUUCUACCGGGCACCGUAAAUGUCCGACUGGAGCCGUUCGGGCGGCUAUAAACAGACCUCAGGCCCGAAGCGUGGCGGCACCUGCCGCCGGUGGUAAAAAAGAUCGGAAGAGCACACGUCU

Variants of: B1
Assay: aptazyme ON/OFF ratio, guanine; higher = stronger switching; co-transcriptional cleavage with and without guanine

Aptazyme ON/OFF ratio, 1.27:
U10C U11G C13A

Aptazyme ON/OFF ratio, 1.35:
U8C G9A U10A U11C C12G C13G
U7A U11C C12A C13A
U7A U8G G9A U10C C12G
U7A U10C C12G C13G
U7G U8G U10A U11A C13U

Aptazyme ON/OFF ratio, 1.95:
U7A U8G U10A U11G

Aptazyme ON/OFF ratio, 1.2:
U7C U8A G9A U10A U11A C12A
U8G G9C U10G U11A C12G C13U
U8A G9C U10G C12G C13U
U7C U8C G9U U10C C13A
U7C U8A G9A U10G U11C C12A
U7C U8A G9A U11C C12U C13U
U7C G9A U10A U11A C12A C13A

Aptazyme ON/OFF ratio, 1.24:
U7C U8G G9A U10G U11A C12G
U7G U8C U10A U11A C12U C13U

Aptazyme ON/OFF ratio, 1.03:
U8G G9U U10G U11A C13U
U7G U10C C13U
U7G U8A G9A U10A C12U C13U
U8A G9U U11C
U7A U8A G9A U10G U11C C13U
U7A U8G U11C C12U C13G
U7C U8G G9U U10G U11C C12G C13A
U7G U8A G9A U11C

Aptazyme ON/OFF ratio, 1.48:
G9A U10C U11A C12G

Aptazyme ON/OFF ratio, 1.06:
U7C U10G U11C C13G
U7C G9U U10G U11A C13U
G9C U10G U11A C12A C13G
U7G U10C U11C C12U C13A
U7G U8A G9U C12A

Aptazyme ON/OFF ratio, 1.59:
U7A U8A G9A U10A U11G C12G C13U

Aptazyme ON/OFF ratio, 4.32:
U7G U8G G9C U11A

Aptazyme ON/OFF ratio, 1.04:
U7A U8C G9C U10C C12U C13U
U7C G9A U10A U11A C13G
U7A U8A G9U U10C U11C C12G C13U
U7A U8C G9A U10G U11A C13A

Aptazyme ON/OFF ratio, 1.14:
U7C U8C G9C U10C U11C
U7C U8C U11G C12U C13A
U8G G9U U10A U11A C12U C13A

Aptazyme ON/OFF ratio, 1.09:
U7C U8A G9C U10G C12A C13G
U7G G9A U10C U11A C12A C13U
U7G U8G G9A U10A U11G C13A
U7G U8C G9C U10C U11G C12G C13G
U7A U8G G9A U10A U11G C13U
U7C U8G G9C U11C C12A C13G
U8C G9C U10G U11G C12U
U7G U8C G9A U10G U11C C12U
U7G G9A U10G U11C C12U C13U
U8G G9U U10A U11G C13A
U7A U8C G9C U10A C12A
U7G G9A U10A C12G C13A
U7C U8G U11A C12A C13A
U7C U8C U10G U11A C12G C13U
U7C U8A G9C C12G C13U
U7C G9U U10C U11G C12A

Aptazyme ON/OFF ratio, 1.22:
U7G U8G G9C U10C U11G C12A
U7G U8C G9U U10G U11C C12U C13G

Aptazyme ON/OFF ratio, 1.23:
U7C U8G G9A U10G C13A
U8G U10A C12G

Aptazyme ON/OFF ratio, 2.53:
U7G G9C U11C

Aptazyme ON/OFF ratio, 1.01:
U7G U8C G9C U10A C12U C13G
U7A G9C U10C C13A

Aptazyme ON/OFF ratio, 1.37:
U7G U8G G9A U10A C13U

Aptazyme ON/OFF ratio, 1.18:
U7G U8A U11A C12G C13G
U7A G9U U10A U11C C12U C13U

Aptazyme ON/OFF ratio, 1.13:
U7C U8A G9U U10C U11A C12A C13G
U8C U10G U11A C12G C13A
U7A U10G U11C C12G C13A

Aptazyme ON/OFF ratio, 1.19:
U7C U8C G9C U10G U11C C12U
U7A U8A G9U U11G C12G
U8C G9A U10C U11A C12A C13U
U7A U8A G9C U10C U11A C13G
U7A U8C G9U U10C C13U
U7C G9U U10A U11A C12G C13G
U7A U8A U10A U11A C12A C13G
G9C U10C U11A C12G C13A

Aptazyme ON/OFF ratio, 1.25:
U7G G9U U10C U11G C12G
U7A G9A U10A U11A C12A
G9A U10A U11G C12G C13U
U7C G9U U10A U11A C13U
U7C U8A U10C U11A C12G C13G
U7C G9A U10A C12U C13U

Aptazyme ON/OFF ratio, 1.17:
U7C U8C G9U U10C U11A C12A C13A
U7G U8A G9A U10A C12A
U8C G9C U10C U11G C13U
U7A U8A G9A U10A U11A C12U
U7A U8A U10A C12G C13G
U7G U8A G9A U11A C12G C13A

Aptazyme ON/OFF ratio, 1.36:
U8G G9U U11A C12U
U7G U8C G9U U10G U11G C13U

Aptazyme ON/OFF ratio, 1.64:
U7A U8G G9U U10G U11A C12U C13A

Aptazyme ON/OFF ratio, 1.33:
U8C G9U U10C U11G
U7C U8G U10A C12U C13U

Aptazyme ON/OFF ratio, 1.41:
U7A U8G U10C C12A C13A

Aptazyme ON/OFF ratio, 1.47:
U7A G9U U10A C12A

Aptazyme ON/OFF ratio, 1.21:
U7G G9C U10C C12U C13G
U7G C12A C13U

Aptazyme ON/OFF ratio, 1.07:
U7G U8C G9A U10G C12A C13A
U7G G9A U10G C12G C13U
U7A U8C G9A U10C U11C C12G C13G
U7C U8C G9C U10C U11A C12A C13A
U7C G9C U10C U11A C12U C13G

Aptazyme ON/OFF ratio, 1.11:
U8C G9C U10A C12A C13U
U7C U8A G9U U10C U11G C12A C13A
U7G G9C U10C U11C C12U C13U

Aptazyme ON/OFF ratio, 1.74:
U7A U8G G9U U10G U11A C12A

Aptazyme ON/OFF ratio, 1.31:
U7G G9C U10C C12G C13A

Aptazyme ON/OFF ratio, 1.3:
U7C U8G G9U U10G U11A C12G C13G
U7C U8C G9C U10G U11A
G9A U10G C13A
U7G U8G G9C U10C U11A C12U
U8A U10G U11C C12U C13A

Aptazyme ON/OFF ratio, 3.94:
U7G G9U U10C

Aptazyme ON/OFF ratio, 1.38:
G9U U10A U11A C13A

Aptazyme ON/OFF ratio, 1.16:
U7C U8A G9U U11G C12G C13G
U7A U8A U10G U11G C12A C13G
U8C G9A U11C C12U
U7G U8C G9U U10A C12U C13G
U7G U8A U10G U11G C12A C13A
G9A U10G U11G C12G C13A

Aptazyme ON/OFF ratio, 1.54:
G9U U10C U11A C12U C13U

Aptazyme ON/OFF ratio, 1.02:
G9A U10A U11G C12A

Aptazyme ON/OFF ratio, 1.26:
U7A U10C U11G C12G
U7A U8C U10A C12G C13U
U7G G9C C12G C13G

Aptazyme ON/OFF ratio, 1.29:
U7A U8A G9U U10G U11C C12A C13A
U7A U8A C12U C13A
U8C G9U U10A C13A

Aptazyme ON/OFF ratio, 1.42:
U8A G9A U10G C12A C13A

Aptazyme ON/OFF ratio, 1.57:
U7A U8G G9C U11G

Aptazyme ON/OFF ratio, 1.08:
G9A U10G U11C C12U
U7A U8C U10A U11C C12A C13U
U7C U10C U11C C13U
U7G U8G G9U U10A U11A C13G
U7G U8A G9U U11C
U8C G9C U10G U11G C12A C13U

Aptazyme ON/OFF ratio, 0.975:
U7A U8G U10G U11A C12U C13G

Aptazyme ON/OFF ratio, 1.15:
U7G U8G G9U U10G C12G C13G
U7A G9A U10A U11C C12U C13U
U7G U8A G9A U10A U11A C12G C13G
U7C U8A G9U U10C U11A C13A
U7G U10C U11G C12G
U8C G9A U11G C13U

Aptazyme ON/OFF ratio, 1.1:
G9A U11G C13G
U7G U8A G9A U10G U11C C12U C13U
U7A G9A U11C C12U C13A
U7A U8C U10C U11C C12G C13G
U7G U10G U11G C12A C13G

Aptazyme ON/OFF ratio, 1.34:
U10G C12G C13U

Aptazyme ON/OFF ratio, 1.39:
U7G U8C G9C U11G C12A

Aptazyme ON/OFF ratio, 1.43:
U7G U8G U10C U11G C12G

Aptazyme ON/OFF ratio, 1.12:
U7A U8A G9C U10A U11C C12A C13A
U7A U8G G9C U10C C12A C13U
U7C U8C U11C C13G
U7G U8G G9C U10G U11A C12G C13G
U8A G9A U10G U11A C12U C13A
U7A U8A C12A C13G
U8A G9C U10C U11G C12G
U7C U8A G9A U11G C12G C13G

Aptazyme ON/OFF ratio, 1.92:
U7G U8C G9C U10C

Aptazyme ON/OFF ratio, 1.28:
U7G U8G G9U U11A C12U C13G
U7C U8G U11C C12U
U7A G9U U10A C12G

Aptazyme ON/OFF ratio, 1.05:
U7G U8C G9A U10G U11A C13A
U7A U8C G9U U11C C12G C13G
U8G G9U U10G C12G C13G
U8A G9A U10G U11G C13U
